According to patent US20190202883A1 (Takeda / Millennium, published 2019):
Each block holds one binder with its values, some of them ahead of it. Square brackets hold non-standard residues; d marks the D form. Side chains are listed from the residue outwards. Phe(2-F) = N[C@@H](Cc1ccccc1F)C(=O)O; αMeF = C[C@](N)(Cc1ccccc1)C(=O)O; Iva = CC[C@](C)(N)C(=O)O; Oda = not defined here; Aib = CC(C)(N)C(=O)O

Legend:
Assay in all cases: cell-based or functional assay
[1] = biological target: T1, human NPY2R (human, UniProt P49146 1-381)
T1 sequence (looked up): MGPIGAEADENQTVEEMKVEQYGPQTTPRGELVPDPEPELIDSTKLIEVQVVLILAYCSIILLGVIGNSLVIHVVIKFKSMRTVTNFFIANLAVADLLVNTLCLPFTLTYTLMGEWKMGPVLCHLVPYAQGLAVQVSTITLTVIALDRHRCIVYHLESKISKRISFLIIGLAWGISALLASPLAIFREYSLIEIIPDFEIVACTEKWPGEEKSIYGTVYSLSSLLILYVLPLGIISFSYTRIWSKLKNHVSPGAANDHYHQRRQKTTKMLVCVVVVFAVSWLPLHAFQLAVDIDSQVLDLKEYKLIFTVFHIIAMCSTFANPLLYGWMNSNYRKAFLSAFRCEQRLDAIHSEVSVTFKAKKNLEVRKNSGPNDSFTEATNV

[2] = biological target: human GLP-1R (human, UniProt P43220 24-463)
[3] = biological target: T2, human GIPR (human, UniProt P48546 22-466)
T2 sequence (looked up): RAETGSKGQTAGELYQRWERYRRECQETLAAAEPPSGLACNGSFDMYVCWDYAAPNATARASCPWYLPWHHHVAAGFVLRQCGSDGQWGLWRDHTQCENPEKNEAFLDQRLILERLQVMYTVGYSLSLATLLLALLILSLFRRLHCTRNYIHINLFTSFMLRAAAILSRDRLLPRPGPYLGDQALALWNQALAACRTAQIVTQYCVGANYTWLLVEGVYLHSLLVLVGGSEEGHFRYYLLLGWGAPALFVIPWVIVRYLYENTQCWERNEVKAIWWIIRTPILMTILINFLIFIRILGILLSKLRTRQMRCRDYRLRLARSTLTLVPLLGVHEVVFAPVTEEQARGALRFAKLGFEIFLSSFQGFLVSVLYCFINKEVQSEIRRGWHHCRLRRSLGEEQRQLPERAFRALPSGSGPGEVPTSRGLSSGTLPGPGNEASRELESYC

- Agonist activity (EC50), Cre-luc reporter assay [1]: 0.1 nM
- Agonist activity (EC50), Cre-luc reporter assay [2]: 0.1 nM
- Agonist activity (EC50), Cre-luc reporter assay [3]: 0.074 nM
B4: Me-Tyr-Aib-Glu-Gly-Thr-αMePhe-Thr-Ser-Asp-Lys(-Gly-Gly-Gly-Gly-Pal)-Ala-Ile-Aib-Leu-Asp-Lys-Gln-Arg-Gln-Iva-Glu-Phe-Val-Arg-His-Leu-Leu-Asn-Lys-Aib-Thr-Arg-Gln- … (peptide)
peptide: Me-Y[Aib]EGT[αMeF]TSDK([Gly-Gly-Gly-Gly-Pal])AI[Aib]LDKQRQ[Iva]EFVRHLLNK[Aib]TRQRY-NH2

- Agonist activity (EC50), Cre-luc reporter assay [1]: 2.4 nM
- Agonist activity (EC50), Cre-luc reporter assay [2]: 1.9 nM
- Agonist activity (EC50), Cre-luc reporter assay [3]: 0.091 nM
B7: Me-Tyr-Aib-Glu-Gly-Thr-αMePhe-Thr-Ser-Asp-Lys(-Gly-Gly-Gly-Gly-Oda)-Ser-Ile-Aib-Leu-Asp-Lys-Gln-Arg-Gln-Iva-Glu-Phe-Val-Arg-His-Leu-Leu-Asn-Lys-Aib-Thr-Arg-Gln- … (peptide)
peptide: Me-Y[Aib]EGT[αMeF]TSDK([Gly-Gly-Gly-Gly-Oda])SI[Aib]LDKQRQ[Iva]EFVRHLLNK[Aib]TRQRY-NH2
modifications: reading uncertain; also: printed as Me-Tyr-Aib-Glu-Gly-Thr-αMePhe-Thr-Ser-Asp-Lys(-Gly-Gly-Gly-Gly-Oda)-Ser-Ile-Aib-Leu-Asp-Lys-Gln-Arg-Gln-Iva-Glu-Phe-Val-Arg-His-Leu-Leu-Asn-Lys-Aib-Thr-Arg-Gln-Arg-Tyr-NH2

- Agonist activity (EC50), Cre-luc reporter assay [1]: 0.059 nM
- Agonist activity (EC50), Cre-luc reporter assay [2]: 0.13 nM
- Agonist activity (EC50), Cre-luc reporter assay [3]: 0.091 nM
B8: H-Tyr-Aib-Glu-Gly-Thr-αMePhe-Thr-Ser-Asp-Lys(-Gly-Gly-Gly-Gly-Pal)-Ser-Lys-Aib-Leu-Asp-Lys-Gln-Arg-Gln-Iva-Glu-Phe-Val-Arg-His-Leu-Leu-Asn-Lys-Aib-Thr-Arg-Gln-A … (peptide)
peptide: H-Y[Aib]EGT[αMeF]TSDK([Gly-Gly-Gly-Gly-Pal])SK[Aib]LDKQRQ[Iva]EFVRHLLNK[Aib]TRQRY-NH2

Further lines, the binder ahead of its results:

B1: H-Tyr-Aib-Glu-Gly-Thr-αMePhe-Thr-Ser-Asp-Lys(-Gly-Gly-Gly-Gly-Oda)-Ser-Ile-Aib-Leu-Asp-Lys-Gln-Arg-Gln-Iva-Glu-Phe-Val-Arg-His-Leu-Leu-Asn-Lys-Aib-Thr-Arg-Gln-A … (peptide)
peptide: H-Y[Aib]EGT[αMeF]TSDK([Gly-Gly-Gly-Gly-Oda])SI[Aib]LDKQRQ[Iva]EFVRHLLNK[Aib]TRQRY-NH2
modifications: reading uncertain; also: printed as H-Tyr-Aib-Glu-Gly-Thr-αMePhe-Thr-Ser-Asp-Lys(-Gly-Gly-Gly-Gly-Oda)-Ser-Ile-Aib-Leu-Asp-Lys-Gln-Arg-Gln-Iva-Glu-Phe-Val-Arg-His-Leu-Leu-Asn-Lys-Aib-Thr-Arg-Gln-Arg-Tyr-NH2
- Agonist activity (EC50), Cre-luc reporter assay [1]: 2.6 nM
- Agonist activity (EC50), Cre-luc reporter assay [2]: 0.47 nM
- Agonist activity (EC50), Cre-luc reporter assay [3]: 0.11 nM

B2: H-Tyr-Aib-Glu-Gly-Thr-αMePhe-Thr-Ser-Asp-Lys(-Gly-Gly-Gly-Gly-Oda)-Ser-Lys-Aib-Leu-Asp-Lys-Gln-Arg-Gln-Iva-Glu-Phe-Val-Arg-His-Leu-Leu-Asn-Lys-Aib-Thr-Arg-Gln-A … (peptide)
peptide: H-Y[Aib]EGT[αMeF]TSDK([Gly-Gly-Gly-Gly-Oda])SK[Aib]LDKQRQ[Iva]EFVRHLLNK[Aib]TRQRY-NH2
modifications: reading uncertain; also: printed as H-Tyr-Aib-Glu-Gly-Thr-αMePhe-Thr-Ser-Asp-Lys(-Gly-Gly-Gly-Gly-Oda)-Ser-Lys-Aib-Leu-Asp-Lys-Gln-Arg-Gln-Iva-Glu-Phe-Val-Arg-His-Leu-Leu-Asn-Lys-Aib-Thr-Arg-Gln-Arg-Tyr-NH2
- Agonist activity (EC50), Cre-luc reporter assay [1]: 1.3 nM
- Agonist activity (EC50), Cre-luc reporter assay [2]: 1.3 nM
- Agonist activity (EC50), Cre-luc reporter assay [3]: 0.61 nM

B3: H-Tyr-Aib-Glu-Gly-Thr-αMePhe-Thr-Ser-Asp-Lys(-Gly-Gly-Gly-Gly-Oda)-Aib-Ile-Aib-Leu-Asp-Lys-Gln-Ala-Gln-Iva-Glu-Phe-Val-Arg-His-Leu-Leu-Asn-Lys-Aib-Thr-Arg-Gln-A … (peptide)
peptide: H-Y[Aib]EGT[αMeF]TSDK([Gly-Gly-Gly-Gly-Oda])[Aib]I[Aib]LDKQAQ[Iva]EFVRHLLNK[Aib]TRQR[Phe(2-F)]-NH2
modifications: reading uncertain; also: printed as H-Tyr-Aib-Glu-Gly-Thr-αMePhe-Thr-Ser-Asp-Lys(-Gly-Gly-Gly-Gly-Oda)-Aib-Ile-Aib-Leu-Asp-Lys-Gln-Ala-Gln-Iva-Glu-Phe-Val-Arg-His-Leu-Leu-Asn-Lys-Aib-Thr-Arg-Gln-Arg-Phe(2-F)-NH2
- Agonist activity (EC50), Cre-luc reporter assay [1]: 2.1 nM
- Agonist activity (EC50), Cre-luc reporter assay [2]: 0.11 nM
- Agonist activity (EC50), Cre-luc reporter assay [3]: 0.071 nM

B5: H-Tyr-Aib-Glu-Gly-Thr-αMePhe-Thr-Ser-Asp-Lys(-Gly-Gly-Gly-Gly-Pal)-Aib-Ile-Aib-Leu-Asp-Lys-Gln-Ala-Gln-Iva-Glu-Phe-Val-Arg-His-Leu-Leu-Asn-Lys-Aib-Thr-Arg-Gln-A … (peptide)
peptide: H-Y[Aib]EGT[αMeF]TSDK([Gly-Gly-Gly-Gly-Pal])[Aib]I[Aib]LDKQAQ[Iva]EFVRHLLNK[Aib]TRQRY-NH2
- Agonist activity (EC50), Cre-luc reporter assay [1]: 0.038 nM
- Agonist activity (EC50), Cre-luc reporter assay [2]: 0.042 nM
- Agonist activity (EC50), Cre-luc reporter assay [3]: 0.041 nM

B6: H-Tyr-Aib-Glu-Gly-Thr-αMePhe-Thr-Ser-Asp-Lys(-Gly-Gly-Gly-Gly-Pal)-Aib-Lys-Aib-Leu-Asp-Lys-Gln-Arg-Gln-Iva-Glu-Phe-Val-Arg-His-Leu-Leu-Asn-Lys-Aib-Thr-Arg-Gln-A … (peptide)
peptide: H-Y[Aib]EGT[αMeF]TSDK([Gly-Gly-Gly-Gly-Pal])[Aib]K[Aib]LDKQRQ[Iva]EFVRHLLNK[Aib]TRQRY-NH2
- Agonist activity (EC50), Cre-luc reporter assay [1]: 0.064 nM
- Agonist activity (EC50), Cre-luc reporter assay [2]: 0.06 nM
- Agonist activity (EC50), Cre-luc reporter assay [3]: 0.044 nM

B9: H-Tyr-Aib-Glu-Gly-Thr-αMePhe-Thr-Ser-Asp-Lys(-Gly-Gly-Gly-Gly-Oda)-Ala-Ile-Aib-Leu-Asp-Lys-Gln-Arg-Gln-Iva-Glu-Phe-Val-Arg-His-Leu-Leu-Asn-Lys-Aib-Thr-Arg-Gln-A … (peptide)
peptide: H-Y[Aib]EGT[αMeF]TSDK([Gly-Gly-Gly-Gly-Oda])AI[Aib]LDKQRQ[Iva]EFVRHLLNK[Aib]TRQRY-NH2
modifications: reading uncertain; also: printed as H-Tyr-Aib-Glu-Gly-Thr-αMePhe-Thr-Ser-Asp-Lys(-Gly-Gly-Gly-Gly-Oda)-Ala-Ile-Aib-Leu-Asp-Lys-Gln-Arg-Gln-Iva-Glu-Phe-Val-Arg-His-Leu-Leu-Asn-Lys-Aib-Thr-Arg-Gln-Arg-Tyr-NH2
- Agonist activity (EC50), Cre-luc reporter assay [1]: 3 nM
- Agonist activity (EC50), Cre-luc reporter assay [2]: 1.2 nM
- Agonist activity (EC50), Cre-luc reporter assay [3]: 0.26 nM
